Data published in publication PMC5940392 (Oncotarget, 2018).

Target: Lysine-specific demethylase 1 (human (endogenous in HEL), UniProt O60341 1-852)
Assay: affinity purification with mass spectrometry; LSD1-IP from HEL cells treated with NCD38 or DMSO; label-free quantification (Progenesis QI); binding rate change = normalized abundance in NCD38-treated cells divided by that in DMSO-treated cells, normalized to LSD1
Conditions: partners not purified

binding rate after NCD38 relative to DMSO: 27%
B1: GFI1B (natural protein)
chain: not shown
notes: GFI1B, human, UniProtKB Q5VTD9; source: endogenous, HEL whole-cell lysate
